Results taken from article PMC8307404, “Crystal Structure-Guided Design of Bisubstrate Inhibitors and Photoluminescent Probes for Protein Kinases of the PIM Family” (Molecules, 2021).
Square brackets hold non-standard residues; d marks the D form. Peptide text beside a SMILES is read from it. * marks the point of attachment. X3 = O=C(CCCCCNCc1nc2c(sc3cc(Br)cnc32)c(=O)[nH]1)*

Tests used:
Assay in all cases: Kinase profiling (radiometric filter-binding)
Type in all cases: biochemical
IKK = molecular target: T1, IKK (Homo sapiens, UniProt O14920); conditions: first of two IKK lines (Greek letter lost), 1 µM inhibitor, read-out: Residual activity, %
T1 sequence (O14920 1-756): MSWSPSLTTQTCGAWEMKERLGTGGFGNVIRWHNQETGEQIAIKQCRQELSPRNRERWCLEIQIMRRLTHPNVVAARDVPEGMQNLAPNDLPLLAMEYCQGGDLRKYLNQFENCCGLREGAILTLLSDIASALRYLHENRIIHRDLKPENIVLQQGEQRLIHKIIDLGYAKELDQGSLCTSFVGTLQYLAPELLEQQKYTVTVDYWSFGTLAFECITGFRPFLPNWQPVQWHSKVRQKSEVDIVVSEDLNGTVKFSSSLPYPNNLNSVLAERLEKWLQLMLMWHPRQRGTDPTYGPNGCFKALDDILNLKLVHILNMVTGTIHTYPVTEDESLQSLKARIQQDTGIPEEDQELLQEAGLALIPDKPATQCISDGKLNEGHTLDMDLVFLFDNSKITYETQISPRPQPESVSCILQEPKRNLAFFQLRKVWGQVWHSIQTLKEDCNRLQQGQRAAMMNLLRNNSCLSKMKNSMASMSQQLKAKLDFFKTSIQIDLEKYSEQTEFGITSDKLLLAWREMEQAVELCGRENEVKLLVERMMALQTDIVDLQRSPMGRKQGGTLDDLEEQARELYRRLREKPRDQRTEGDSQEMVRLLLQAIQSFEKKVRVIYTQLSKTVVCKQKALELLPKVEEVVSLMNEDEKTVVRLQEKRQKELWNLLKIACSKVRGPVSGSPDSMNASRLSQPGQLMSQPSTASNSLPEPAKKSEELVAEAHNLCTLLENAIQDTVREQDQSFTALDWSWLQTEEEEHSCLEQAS
Summary of the method: (§1)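 Each compound, at 1 µM final, is screened against human protein kinases in a radiometric filter-binding format. ATP is set at or under the KM of each kinase. Values give retained activity relative to a control lacking inhibitor.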

ERK1 = ERK1 (Homo sapiens, UniProt P27361); conditions: ERK1, 1 µM inhibitor; read-out: Residual activity, %
ERK1, sequence (P27361 whole entry): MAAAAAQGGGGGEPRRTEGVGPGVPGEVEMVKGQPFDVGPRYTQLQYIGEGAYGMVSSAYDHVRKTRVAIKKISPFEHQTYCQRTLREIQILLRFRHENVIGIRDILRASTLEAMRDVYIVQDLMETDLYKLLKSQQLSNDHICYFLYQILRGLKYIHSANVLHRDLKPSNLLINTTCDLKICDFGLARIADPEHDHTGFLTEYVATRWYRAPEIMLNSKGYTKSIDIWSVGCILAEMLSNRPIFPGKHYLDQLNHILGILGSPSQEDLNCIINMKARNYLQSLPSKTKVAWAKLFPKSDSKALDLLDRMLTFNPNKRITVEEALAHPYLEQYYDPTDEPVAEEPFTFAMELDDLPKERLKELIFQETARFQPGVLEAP
Summary of the method: as §1

MNK2 = MNK2 (Homo sapiens, UniProt Q9HBH9); conditions: MNK2, 1 µM inhibitor; read-out: Residual activity, %
MNK2, sequence (Q9HBH9 whole entry): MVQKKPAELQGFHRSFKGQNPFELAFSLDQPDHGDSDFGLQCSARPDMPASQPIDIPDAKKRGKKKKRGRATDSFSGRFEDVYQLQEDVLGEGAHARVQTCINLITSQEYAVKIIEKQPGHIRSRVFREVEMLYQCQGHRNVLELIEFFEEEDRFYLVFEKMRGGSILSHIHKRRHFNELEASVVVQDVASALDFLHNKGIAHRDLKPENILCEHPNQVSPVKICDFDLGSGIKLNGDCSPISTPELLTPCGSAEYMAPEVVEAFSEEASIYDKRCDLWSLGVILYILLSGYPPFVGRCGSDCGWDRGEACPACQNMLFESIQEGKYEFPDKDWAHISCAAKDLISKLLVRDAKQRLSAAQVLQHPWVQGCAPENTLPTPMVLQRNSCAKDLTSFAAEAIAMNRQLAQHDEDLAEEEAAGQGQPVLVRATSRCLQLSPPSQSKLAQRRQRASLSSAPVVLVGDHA
Summary of the method: as §1

MARK1 = MARK1 (Homo sapiens, UniProt Q9P0L2); conditions: MARK1, 1 µM inhibitor; read-out: Residual activity, %
MARK1, sequence (Q9P0L2 whole entry): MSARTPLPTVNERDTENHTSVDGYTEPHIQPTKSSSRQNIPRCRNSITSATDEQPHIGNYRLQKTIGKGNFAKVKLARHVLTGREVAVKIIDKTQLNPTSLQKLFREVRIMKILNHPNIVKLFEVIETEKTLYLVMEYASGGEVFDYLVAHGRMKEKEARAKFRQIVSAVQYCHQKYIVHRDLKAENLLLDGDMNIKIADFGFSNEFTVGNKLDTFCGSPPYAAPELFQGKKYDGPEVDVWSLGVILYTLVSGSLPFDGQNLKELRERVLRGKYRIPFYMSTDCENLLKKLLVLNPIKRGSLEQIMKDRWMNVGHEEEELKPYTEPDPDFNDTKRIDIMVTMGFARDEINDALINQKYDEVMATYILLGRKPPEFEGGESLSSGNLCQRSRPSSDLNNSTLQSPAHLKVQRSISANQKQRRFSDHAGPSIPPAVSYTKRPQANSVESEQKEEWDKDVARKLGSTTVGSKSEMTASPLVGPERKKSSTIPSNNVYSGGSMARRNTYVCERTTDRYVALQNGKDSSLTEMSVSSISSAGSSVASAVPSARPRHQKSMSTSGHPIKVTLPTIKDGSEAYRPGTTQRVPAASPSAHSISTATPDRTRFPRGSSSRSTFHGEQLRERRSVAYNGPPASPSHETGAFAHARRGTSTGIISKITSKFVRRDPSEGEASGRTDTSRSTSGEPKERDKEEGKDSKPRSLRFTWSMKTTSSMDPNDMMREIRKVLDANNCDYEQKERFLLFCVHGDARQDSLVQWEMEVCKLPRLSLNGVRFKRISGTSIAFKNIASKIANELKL
Summary of the method: as §1

MAPKAP-K2 = MAPKAP-K2 (Homo sapiens, UniProt P49137); conditions: MAPKAP-K2, 1 µM inhibitor; read-out: Residual activity, %
MAPKAP-K2, sequence (P49137 whole entry): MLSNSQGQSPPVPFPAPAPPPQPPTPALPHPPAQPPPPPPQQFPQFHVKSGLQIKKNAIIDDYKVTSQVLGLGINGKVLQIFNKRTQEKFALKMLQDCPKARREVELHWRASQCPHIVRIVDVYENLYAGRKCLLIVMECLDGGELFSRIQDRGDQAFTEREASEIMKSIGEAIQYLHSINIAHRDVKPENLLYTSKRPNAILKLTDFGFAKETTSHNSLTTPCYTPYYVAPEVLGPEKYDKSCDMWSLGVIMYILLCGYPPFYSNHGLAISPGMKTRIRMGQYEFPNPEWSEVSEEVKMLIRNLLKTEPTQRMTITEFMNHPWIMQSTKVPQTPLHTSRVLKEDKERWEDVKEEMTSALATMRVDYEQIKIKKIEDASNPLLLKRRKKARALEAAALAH
Summary of the method: as §1

ROCK 2 = ROCK 2 (Homo sapiens, UniProt O75116); conditions: ROCK 2, 1 µM inhibitor; read-out: Residual activity, %
ROCK 2, sequence (O75116 whole entry): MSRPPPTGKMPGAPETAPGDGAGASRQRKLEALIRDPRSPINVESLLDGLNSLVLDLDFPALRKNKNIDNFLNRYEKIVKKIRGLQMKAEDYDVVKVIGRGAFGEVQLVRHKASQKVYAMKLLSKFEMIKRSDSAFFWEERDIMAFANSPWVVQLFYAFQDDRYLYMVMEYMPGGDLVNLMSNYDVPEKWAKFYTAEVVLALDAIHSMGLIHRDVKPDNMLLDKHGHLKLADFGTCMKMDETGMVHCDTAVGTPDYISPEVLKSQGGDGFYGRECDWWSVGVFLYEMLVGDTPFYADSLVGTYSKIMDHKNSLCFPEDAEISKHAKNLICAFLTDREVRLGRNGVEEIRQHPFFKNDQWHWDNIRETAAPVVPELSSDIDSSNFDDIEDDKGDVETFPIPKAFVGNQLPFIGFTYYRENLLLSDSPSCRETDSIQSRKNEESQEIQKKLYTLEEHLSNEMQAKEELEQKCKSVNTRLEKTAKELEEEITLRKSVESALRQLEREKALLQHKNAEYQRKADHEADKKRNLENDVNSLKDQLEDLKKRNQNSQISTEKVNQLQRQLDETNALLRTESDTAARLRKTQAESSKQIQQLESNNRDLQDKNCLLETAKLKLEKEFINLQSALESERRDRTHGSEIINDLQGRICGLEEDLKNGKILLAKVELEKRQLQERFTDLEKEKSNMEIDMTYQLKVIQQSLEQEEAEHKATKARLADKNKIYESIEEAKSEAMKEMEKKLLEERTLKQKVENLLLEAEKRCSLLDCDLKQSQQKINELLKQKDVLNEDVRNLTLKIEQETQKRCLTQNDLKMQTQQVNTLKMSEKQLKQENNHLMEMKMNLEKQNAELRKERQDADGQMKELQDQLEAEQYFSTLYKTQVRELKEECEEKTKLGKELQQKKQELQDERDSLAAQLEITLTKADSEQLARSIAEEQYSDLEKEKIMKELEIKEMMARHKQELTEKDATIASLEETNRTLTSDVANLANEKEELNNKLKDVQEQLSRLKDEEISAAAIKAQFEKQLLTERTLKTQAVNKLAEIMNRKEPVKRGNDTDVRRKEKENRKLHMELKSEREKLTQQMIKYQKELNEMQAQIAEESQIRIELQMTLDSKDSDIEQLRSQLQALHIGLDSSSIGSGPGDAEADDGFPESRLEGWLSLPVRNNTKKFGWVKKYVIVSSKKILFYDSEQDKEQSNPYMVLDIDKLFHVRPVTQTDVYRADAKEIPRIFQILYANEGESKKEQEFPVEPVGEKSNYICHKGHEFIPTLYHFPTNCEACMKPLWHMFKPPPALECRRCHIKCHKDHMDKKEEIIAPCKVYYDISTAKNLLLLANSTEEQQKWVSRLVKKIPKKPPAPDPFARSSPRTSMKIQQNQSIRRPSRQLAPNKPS
Summary of the method: as §1

TESK1 = TESK1 (Homo sapiens, UniProt Q15569); conditions: TESK1, 1 µM inhibitor; read-out: Residual activity, %
TESK1, sequence (Q15569 whole entry): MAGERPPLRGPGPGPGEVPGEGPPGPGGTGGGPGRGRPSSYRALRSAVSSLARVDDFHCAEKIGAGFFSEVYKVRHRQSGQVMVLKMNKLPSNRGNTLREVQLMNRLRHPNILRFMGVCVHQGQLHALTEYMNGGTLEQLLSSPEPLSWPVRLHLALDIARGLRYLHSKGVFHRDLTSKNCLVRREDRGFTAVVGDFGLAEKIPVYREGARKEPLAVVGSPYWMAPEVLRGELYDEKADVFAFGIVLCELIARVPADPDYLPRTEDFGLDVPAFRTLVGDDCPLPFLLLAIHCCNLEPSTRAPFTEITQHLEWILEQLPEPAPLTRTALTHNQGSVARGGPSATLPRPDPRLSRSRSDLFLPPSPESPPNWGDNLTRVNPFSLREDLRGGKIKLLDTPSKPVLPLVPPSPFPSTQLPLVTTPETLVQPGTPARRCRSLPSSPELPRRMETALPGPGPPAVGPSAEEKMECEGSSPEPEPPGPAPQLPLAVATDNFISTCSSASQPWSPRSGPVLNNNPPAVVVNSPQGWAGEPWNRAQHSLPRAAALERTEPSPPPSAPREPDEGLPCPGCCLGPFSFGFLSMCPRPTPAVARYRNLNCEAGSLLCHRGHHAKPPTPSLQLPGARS
Summary of the method: as §1

IRAK4 = molecular target: T2, IRAK4 (Homo sapiens, UniProt Q9NWZ3); conditions: IRAK4, 1 µM inhibitor; read-out: Residual activity, %
T2 sequence (Q9NWZ3 1-460): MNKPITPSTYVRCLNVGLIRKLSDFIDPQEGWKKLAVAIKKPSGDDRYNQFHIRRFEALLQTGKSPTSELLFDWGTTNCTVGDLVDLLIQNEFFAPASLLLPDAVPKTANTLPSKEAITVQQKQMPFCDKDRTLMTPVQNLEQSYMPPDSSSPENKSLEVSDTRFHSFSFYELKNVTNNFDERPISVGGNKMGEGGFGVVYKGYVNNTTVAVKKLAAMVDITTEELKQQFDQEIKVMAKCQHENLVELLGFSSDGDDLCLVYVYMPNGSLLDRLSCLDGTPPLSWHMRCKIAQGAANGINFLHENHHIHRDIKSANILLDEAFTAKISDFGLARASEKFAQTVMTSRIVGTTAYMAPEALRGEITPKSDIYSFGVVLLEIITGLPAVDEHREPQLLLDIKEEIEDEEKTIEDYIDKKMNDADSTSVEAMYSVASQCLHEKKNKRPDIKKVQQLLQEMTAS
Summary of the method: as §1

PKB = PKB (Homo sapiens, UniProt P31749); conditions: first of two PKB lines (Greek letter lost), 1 µM inhibitor, read-out: Residual activity, %
PKB, sequence (P31749 whole entry): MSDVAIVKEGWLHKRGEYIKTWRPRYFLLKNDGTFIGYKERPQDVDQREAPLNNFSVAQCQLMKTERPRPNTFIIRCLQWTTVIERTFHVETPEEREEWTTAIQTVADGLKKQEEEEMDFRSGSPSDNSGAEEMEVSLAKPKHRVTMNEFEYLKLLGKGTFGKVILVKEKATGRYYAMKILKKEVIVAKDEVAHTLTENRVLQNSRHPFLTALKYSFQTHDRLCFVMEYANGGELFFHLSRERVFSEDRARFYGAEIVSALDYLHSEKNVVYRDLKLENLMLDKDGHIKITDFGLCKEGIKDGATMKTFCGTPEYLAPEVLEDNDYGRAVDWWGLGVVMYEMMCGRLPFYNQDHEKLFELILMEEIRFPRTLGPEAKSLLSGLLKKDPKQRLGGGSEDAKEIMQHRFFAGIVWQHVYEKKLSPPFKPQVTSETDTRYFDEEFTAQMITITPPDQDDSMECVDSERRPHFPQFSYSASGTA
Summary of the method: as §1

SYK = SYK (Homo sapiens, UniProt P43405); conditions: 1 µM inhibitor, read-out: Residual activity, %
Summary of the method: as §1

BRSK2 = molecular target: T3, BRSK2 (Homo sapiens, UniProt Q8IWQ3); conditions: BRSK2, 1 µM inhibitor; read-out: Residual activity, %
T3 sequence (Q8IWQ3 1-736): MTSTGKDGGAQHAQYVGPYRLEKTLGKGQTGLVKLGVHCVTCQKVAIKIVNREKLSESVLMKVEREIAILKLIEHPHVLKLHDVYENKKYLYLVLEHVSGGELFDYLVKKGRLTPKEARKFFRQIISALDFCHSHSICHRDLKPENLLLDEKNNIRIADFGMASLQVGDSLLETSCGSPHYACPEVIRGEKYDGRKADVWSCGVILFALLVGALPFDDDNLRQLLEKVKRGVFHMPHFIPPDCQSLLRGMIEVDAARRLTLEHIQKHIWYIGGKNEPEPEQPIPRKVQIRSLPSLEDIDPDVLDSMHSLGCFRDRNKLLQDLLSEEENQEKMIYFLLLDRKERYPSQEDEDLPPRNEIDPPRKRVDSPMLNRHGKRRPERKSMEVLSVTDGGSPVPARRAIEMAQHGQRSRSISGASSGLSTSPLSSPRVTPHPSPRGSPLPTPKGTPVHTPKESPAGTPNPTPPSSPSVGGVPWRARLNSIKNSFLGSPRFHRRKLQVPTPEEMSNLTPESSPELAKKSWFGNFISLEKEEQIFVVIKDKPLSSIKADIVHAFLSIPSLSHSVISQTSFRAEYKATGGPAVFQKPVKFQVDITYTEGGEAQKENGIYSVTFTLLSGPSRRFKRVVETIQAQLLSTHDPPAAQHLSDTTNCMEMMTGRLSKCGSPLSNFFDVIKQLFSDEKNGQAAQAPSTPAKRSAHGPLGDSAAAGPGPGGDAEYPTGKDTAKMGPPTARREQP
Summary of the method: as §1

Compound	remaining activity at 1 µM (IKK) [%]	remaining activity at 1 µM (ERK1) [%]	remaining activity at 1 µM (MNK2) [%]	remaining activity at 1 µM (MARK1) [%]	remaining activity at 1 µM (MAPKAP-K2) [%]	remaining activity at 1 µM (ROCK 2) [%]	remaining activity at 1 µM (TESK1) [%]	remaining activity at 1 µM (IRAK4) [%]	remaining activity at 1 µM (PKB) [%]	remaining activity at 1 µM (SYK) [%]	remaining activity at 1 µM (BRSK2) [%]
N=C(N)NCCC[C@@H](NC(=O)CNC(=O)[C@@H](CCCNC(=N)N)NC(=O)[C@@H](CCCNC(=N)N)NC(=O)Cn1cc(CNCc2nc3c(sc4ccc(Br)cc43)c(=O)[nH]2)nn1)C(=O)N[C@H](CCCCN)C(N)=O [Compound 3, BBTP-Amt-(D-Arg)2-Gly-D-Arg-D-Lys-NH2]	90 ± 6	107 ± 6	96 ± 10	106 ± 2	114 ± 4	62 ± 5	105 ± 1	107 ± 7	72 ± 12	114 ± 2	96 ± 8
N=C(N)NCCC[C@@H](NC(=O)CCCCCNCc1nc2c(sc3cc(Br)cnc32)c(=O)[nH]1)C(=O)N[C@H](CCCNC(=N)N)C(=O)N[C@H](CCCNC(=N)N)C(=O)N[C@H](CCCNC(=N)N)C(=O)N[C@H](CCCNC(=N)N)C(=O)N[C@H](CCCNC(=N)N)C(=O)N[C@H](CCCCN)C(N)=O [ARC-3126, BPTP-Ahx-(D-Arg)6-D-Lys-NH2] (X3-[dR][dR][dR][dR][dR][dR][dK]-NH2)	104 ± 2	84 ± 7	84 ± 17	94		65 ± 17	99 ± 14	97 ± 2	80 ± 4	75 ± 20	100 ± 9
N=C(N)NCCC[C@@H](NC(=O)CCCCCNC(=O)Cn1cnc2c(I)c(I)c(I)c(I)c21)C(=O)N[C@H](CCCNC(=N)N)C(=O)N[C@H](CCCNC(=N)N)C(=O)N[C@H](CCCNC(=N)N)C(=O)N[C@H](CCCNC(=N)N)C(=O)N[C@H](CCCNC(=N)N)C(=O)N[C@H](CCCCN)C(N)=O [ARC-3125, TIBI-CH2-C(=O)-Ahx-(D-Arg)6-D-Lys-NH2]	80 ± 1	89 ± 7	19 ± 4	76 ± 4	51 ± 5	5 ± 1	102 ± 3	73 ± 2	-1 ± 1	94 ± 10	107 ± 23
N=C(N)NCCC[C@@H](NC(=O)CNC(=O)[C@@H](CCCNC(=N)N)NC(=O)[C@@H](CCCNC(=N)N)NC(=O)CCCCCCCNCc1nc2c(sc3cc(Br)cnc32)c(=O)[nH]1)C(=O)N[C@H](CCCCN)C(N)=O [Compound 1, BPTP-Aoc-(D-Arg)2-Gly-D-Arg-D-Lys-NH2]	97	119 ± 16	80 ± 3	110 ± 15	107 ± 10	114 ± 17	111 ± 11	110 ± 3	101 ± 6	133 ± 15	124 ± 12
N=C(N)NCCC[C@@H](NC(=O)CNC(=O)[C@@H](CCCNC(=N)N)NC(=O)[C@@H](CCCNC(=N)N)NC(=O)CCCCCCCNCc1nc2c(sc3ccc(Br)cc32)c(=O)[nH]1)C(=O)N[C@H](CCCCN)C(N)=O [Compound 2, BBTP-Aoc-(D-Arg)2-Gly-D-Arg-D-Lys-NH2]	100 ± 11	125 ± 6	47 ± 2	113 ± 1	107 ± 2	61 ± 5	106 ± 13	108 ± 8	67 ± 7	123 ± 3	108 ± 12
